In publication PMC2856262:
Read-outs that look alike come from different tables or passages of the source. One block for each substance: values may come before it.

What was measured:
[1] = biological target: Rat MBL, double-deletion mutant (two Gly-Xaa-Yaa triplets removed from the collagenous domain) (rat) (UniProt P19999); experiment: SPR
[2] = biological target: SPA-KLPOS (SPA-KLPO with the cysteine of the kink replaced by serine); experiment: SPR
[3] = biological target: SPA-KLP (SP-A with Glu63 to Lys, Cys64 to Leu and Glu66 to Pro); experiment: SPR
[4] = biological target: Recombinant rat mannose-binding lectin (MBL), wild-type (rat) (UniProt P19999); experiment: SPR
[5] = biological target: Rat MBL, insertion mutant (a single Gly-Pro-Hyp inserted near the kink-like region) (rat) (UniProt P19999); experiment: SPR
[6] = biological target: Rat MBL, deletion mutant (one Gly-Xaa-Yaa triplet removed from the collagenous domain) (rat) (UniProt P19999); experiment: SPR
[7] = biological target: Rat MBL, kink mutant (kink-like region removed by insertion of a proline residue) (rat) (UniProt P19999); experiment: SPR
[8] = biological target: SPA-KL (SP-A with Glu63 to Lys and Cys64 to Leu); experiment: SPR
[9] = biological target: SPA-KLPOdel (SPA-KLPO with the kink sequence PCPP removed); experiment: SPR
[10] = biological target: SPA-KLPO (SPA-KLP with Lys67 replaced by hydroxyproline); experiment: SPR
[11] = biological target: Recombinant rat mannose-binding lectin (MBL), wild-type (rat) (UniProt P19999); experiment: SPR; remark: listed apart in the source
[12] = biological target: SPA-KLPOS (SPA-KLPO with the cysteine of the kink replaced by serine)
[13] = biological target: SPA-KLP (SP-A with Glu63 to Lys, Cys64 to Leu and Glu66 to Pro)
[14] = biological target: SPA-KLPOdel (SPA-KLPO with the kink sequence PCPP removed)
[15] = biological target: SPA-KLPO (SPA-KLP with Lys67 replaced by hydroxyproline)

KD, complex 2 [1]: 195 nM | KD, complex 2 [2]: 203 nM | koff, complex 2 [2]: 0.037 s⁻¹ | kon, complex 2 [2]: 210000 M⁻¹ s⁻¹ | KD, complex 2 [3]: 104 nM | koff, complex 2 [3]: 0.0176 s⁻¹ | kon, complex 2 [3]: 360000 M⁻¹ s⁻¹ | KD, complex 2 [4]: 165 nM | koff, complex 2 [4]: 0.00475 s⁻¹ | KD, complex 2 [5]: 199 nM | KD, complex 2 [6]: 175 nM | koff, complex 2 [6]: 0.0054 s⁻¹ | KD, complex 2 [7]: 136 nM | KD, complex 2 [8]: 2120 nM | KD, complex 2 [9]: 114 nM | koff, complex 2 [9]: 0.021 s⁻¹ | KD, complex 2 [10]: 232 nM | koff, complex 2 [10]: 0.022 s⁻¹ | kon, complex 2 [10]: 96000 M⁻¹ s⁻¹ | KD, complex 2 [11]: 166 nM
Substance: MASP-2A (rat MBL-associated serine protease-2, catalytically inactive, Ser613 to Ala) (enzyme)
KD, complex 1 [2]: 99 nM | koff, complex 1 [2]: 0.0046 s⁻¹ | kon, complex 1 [2]: 45000 M⁻¹ s⁻¹ | kon, complex 1 [3]: 54000 M⁻¹ s⁻¹ | KD, complex 1 [5]: 4.9 nM | koff, complex 1 [6]: 0.0038 s⁻¹ | koff, complex 1 [7]: 0.0062 s⁻¹ | KD, complex 1 [9]: 29 nM | koff, complex 1 [9]: 0.0017 s⁻¹ | kon, complex 1 [9]: 53000 M⁻¹ s⁻¹ | KD, complex 1 [10]: 97 nM | koff, complex 1 [10]: 0.0025 s⁻¹ | kon, complex 1 [10]: 26000 M⁻¹ s⁻¹ | KD, complex 1 [11]: 3.8 nM

Half-time for MASP-2K activation, fucose-Sepharose as target [12]: 166 min | Half-time for MASP-2K activation, fucose-Sepharose as target [13]: 270 min | Half-time for MASP-2K activation, fucose-Sepharose as target [14]: 316 min | Half-time for MASP-2K activation, fucose-Sepharose as target [15]: 256 min
Substance: MASP-2K (rat MBL-associated serine protease-2, catalytically active, Arg424 to Lys) (enzyme)
